Measurements from PMC3701909, “Direct single molecule measurement of TCR triggering by agonist pMHC in living primary T cells” (eLife, 2013).

How the values were obtained:
[1] = molecular target: phosphorylated ITAM domains on the cytoplasmic side of TCR engaged with pMHC (TCR complex, 10 ITAM domains) (mouse (endogenous in primary T cells)); assay: two-color single molecule fluorescence tracking (TIRF); ZAP70-EGFP intensity integrated over a 315 nm square centred on each pMHC:TCR complex in live T cells; change-point analysis; intensity calibrated with single ZAP70-EGFP molecules of the same cell; dwell times not corrected for photobleaching
[2] = test system: 5c.c7 TCR; assay: single molecule tracking of agonist pMHC:TCR dwell times in hybrid live T cell-supported membrane junctions; type: binding, mouse; details: 5c.c7 T cells, 37 °C, compared with same-day control
Text: (§1) We probe agonist pMHC:TCR complex dynamics in hybrid live cell—supported membrane junctions([Grakoui et al., 1999]) (Figure 1A). The supported membrane is functionalized with MHC (IE^k) and intercellular adhesion molecule-1 fusion with a blue fluorescent protein (ICAM1-TagBFP), both linked to the membrane via C-terminal poly-His tag binding to Ni-chelating lipids ([Nye and Groves, 2008]). The MHC is loaded with peptide (moth cytochrome c [MCC] agonist or null), which is covalently coupled in a 1:1 stoichiometry (verified by HPLC) to the photostable fluorophores Atto647N or Atto488 using maleimide-thiol chemistry. […]
(§2) Since the slow-moving pMHC can be clearly resolved from the fast moving component, the lifetime of molecules in this bound state is directly observable. […] Unbinding and photobleaching are indistinguishable in fluorescence methods such as this. […]
(§3) TIRF experiments were performed on an inverted microscope (Nikon Eclipse Ti; Technical Instruments, Burlingame, CA) using a custom-built laser launch with 488 nm (Sapphire HP; Coherent Inc., Santa Clara, CA) and 640 nm (Cube; Coherent Inc.) diode lasers, as described previously ([Smith et al., 2011]). Laser powers measured at the sample were 0.8 mW (640 nm) and 0.5 mW (488 nm) for 500 ms exposures and 4.4 mW (640 nm) for 17.5 ms exposures. […]

[3] = test system: AND TCR; assay: as above; type: binding, mouse; details: AND T cells, 37 °C, compared with same-day control
Text: as §1, §2, §3

[4] = molecular target: MCC agonist pMHC: MHC class II I-E^k loaded with MCC(C) peptide labelled with Atto647N (not stated | moth) (UniProt P04230); assay: two-color single molecule fluorescence tracking (TIRF); agonist pMHC (MCC-Atto647N) on a supported lipid bilayer; live T cells expressing ZAP70-EGFP; 1 frame/s, 500 ms integration; pair pMHC and TCR
[5] = molecular target: MCC agonist pMHC: MHC class II I-E^k loaded with MCC(C) peptide labelled with Atto488 (not stated | moth) (UniProt P04230); assay: single molecule fluorescence tracking (TIRF); pMHC (Atto488 on the peptide) tethered by His tags to a Ni-NTA supported lipid bilayer with ICAM1-TagBFP; live primary T cell blasts added; 500 ms exposure, 1-10 s time lapse; dwell time of the slow-moving pMHC corrected for photobleaching; 37°C, imaging buffer; also at 100 molecules/µm^2 and with Latrunculin A

Molecule: enhanced green fluorescent protein fused to CD3 zeta-chain-associated protein of 70 kDa (Zap70-EGFP) (from UniProt P43404 1-618) (enzyme)
- ZAP70 molecules (EGFP-tagged and endogenous) per feature (ZAP70 molecules per feature) [1]: 6
- molecular binding dwell time [1]: 12 to 107 s
- stoichiometry N (ZAP70-EGFP per feature) [1]: 2.9

Molecule: C/C1=C/C(=O)O[C@@H]2C[C@@H](CC[C@H](C)/C=C\C=C\CC1)O[C@@](O)([C@@H]1CSC(=O)N1)C2 [Latrunculin A]
- effect of cytoskeleton disruption on agonist pMHC binding kinetics [2]: no significant effect
- effect of cytoskeleton disruption on ⟨τoff⟩ of agonist pMHC [3]: moderately increases

Molecule: AND TCR
- stoichiometry N [4]: 1
- mean dwell time 〈τoff〉 [5]: 53.8 s
